Measurements published in patent publication US20070009938.

Tests used:
Assay in all cases: EMSA
[1] = test system: wt bZIP (GCN4 basic region - C/EBP leucine zipper hybrid), synthetic (artificial (yeast GCN4 / C/EBP))
[2] = target: 11A alanine mutant bZIP (GCN4 basic region - C/EBP zipper) (artificial (yeast GCN4 / C/EBP)) (UniProt P03069); conditions: group statement
[3] = target: 18A alanine mutant bZIP (GCN4 basic region - C/EBP zipper) (artificial (yeast GCN4 / C/EBP)) (UniProt P03069); conditions: group statement
[4] = target: 4A alanine mutant bZIP (GCN4 basic region - C/EBP zipper) (artificial (yeast GCN4 / C/EBP)) (UniProt P03069); conditions: group statement
[5] = test system: wt bZIP (GCN4 basic region - C/EBP leucine zipper hybrid), expressed (artificial (yeast GCN4 / C/EBP))
[6] = also DNase I footprinting (p65)
[7] = higher-order bandshifts excluded

## GATCTGGATGACTCATTTTTTTTT (double strand) [WT AP-1 (his3 flanks)]
[1]; apparent monomeric Kd, 2 mM MgCl2, 1 mM CaCl2, pH 7.5, 200 mM guanidine HCl
  Kd: 13 nM

## TGCAGGAACCACGTGGTGAAGGTT (double strand) [Max E-box]
[2]; both E-box sites
  binding signal (fold weaker than AP-1): 10
[1]; saturation not achieved
  Kd: 840 nM
[3]; both E-box sites
  binding signal (fold weaker than AP-1): 10
[4]; both E-box sites
  binding signal (fold weaker than AP-1): 10

## TGCAGGAAGACTAACCTGAAGGTT (double strand) [Partial site / NON2]
[1]; apparent monomeric Kd, pH 7.5
  Kd: 280 nM

## TGCAGGAAGCACGTAGTGAAGGTT (double strand) [HRE]
[2]; [6]
  binding signal (fold weaker than AP-1): 7
[1]; saturation not achieved
  Kd: 1400 nM
[3]; [6]
  binding signal (fold weaker than AP-1): 7
[4]; [6]
  binding signal (fold weaker than AP-1): 7

## TGCAGGAATCACGTGATGAAGGTT (double strand) [Arnt E-box]
[2]; both E-box sites
  binding signal (fold weaker than AP-1): 10
[1]; saturation not achieved
  Kd: 570 nM
[3]; both E-box sites
  binding signal (fold weaker than AP-1): 10
[4]; both E-box sites
  binding signal (fold weaker than AP-1): 10

## TGCAGGAATCACTGAAGGTT (double strand) [Arnt E-box half site]
[1]; saturation not achieved
  Kd: > 4000 nM

## TGCAGGAATGACGTCATGAAGGTT (double strand) [CRE]
[1]; apparent monomeric Kd, pH 7.5
  Kd: 12 nM

## TGCAGGAATGACTCATTGAAGGTT (double strand) [AP-1]
[1]; apparent monomeric Kd, pH 7.5
  Kd: 13 nM
[5]; higher-order bandshifts excluded, FIG. 6 legend gives 568 nM for wt bZIP with AP-1 in another experiment (TKMC buffer)
  Kd: 4.8 nM

## TGCAGGAATGACTGAAGGTT (double strand) [AP-1 half site]
[1]; apparent monomeric Kd, pH 7.5
  Kd: 84 nM
[5]; [7]
  Kd: 23 nM

## TGCAGGAATTGCGCAATGAAGGTT (double strand) [C/EBP]
[2]; [6]
  binding signal (fold weaker than AP-1): 3
[1]; apparent monomeric Kd, pH 7.5
  Kd: 120 nM
[5]; [7]
  Kd: 29 nM
[3]; [6]
  binding signal (fold weaker than AP-1): 3
[4]; [6]
  binding signal (fold weaker than AP-1): 3

## TGCAGGAATTGCGTGATGAAGGTT (double strand) [XRE1]
[2]; [6]
  binding signal (fold weaker than AP-1): 7
[1]; apparent monomeric Kd, pH 7.5
  Kd: 240 nM
[3]; [6]
  binding signal (fold weaker than AP-1): 7
[4]; [6]
  binding signal (fold weaker than AP-1): 7

## TGCAGGAATTGCTGAAGGTT (double strand) [C/EBP half site]
[1]; saturation not achieved
  Kd: > 5000 nM
[5]; saturation not achieved
  Kd: > 1500 nM
